# Test results taken from publication PMC8927971.
# Test system: CIZ1 N571 (GST-N571) (Mus musculus)
# Experiment: EMSA
# Conditions: 0.3 nM RNA; 10 mM Tris-HCl pH 7.5, 30 mM NaCl, 2.5 mM MgCl2, 0.2 mM DTT, 0.1% IGEPAL CA-630, 0.1 mg/ml yeast tRNA, 0.4 U RNaseOUT, 1% glycerol; 30 C 20 min; 0.7% agarose …
row,Substance,K half
1,Xist repeat A,200 nM
2,Xist repeat E proximal,100 nM
